± gives the uncertainty stated by the source.
Assay: self-splicing fitness, log relative to wild type (ln ratio); higher = more splicing; Tetrahymena group I intron in knt gene, E. coli kanamycin selection, DiMSum; sequences stand for … in CUCUCU…GGAGGGAAAAGUUAUCAGGCAUGCACCUGGUAGCUAGUCUUUAAACCAAUAGAUUGCAUCGGUUUAAAAGGCAAGACCGUCAAAUUGCGGGAAAGGGGUCAACAGCCGUUCAGUACCAAGUCUCAGGGGAAACUUUGAGAUGGCCUUGCAAAGGGUAUGGUAAUAAGCUGACGGACAUGGUCCUAACCACGCAGCCAAGUCCUAAGUCAACAGAUCUUCUGUUGAUAUGGAUGCAGUUCACAGACUAAAUGUCGGUCGGGGAAGAUGUAUUCUUCUCAUAAGAUAUAGUCGGACCUCUCCUUAAUGGGAGCUAGCGGAUGAAGUGAUGCAACACUGGAGCCGCUGGGAACUAAUUUGUAUGCGAAAGUAUAUUGAUUAGUUUUGGAGUACUCGUGGUCG
In short: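 Pooled colonies went to amplicon sequencing on an Illumina HiSeq 2500 after six replicate transformations. The plates were LB agar with 100 μg/mL carbenicillin, 50 μM IPTG and 0.2% rhamnose, with or without 25 μg/mL kanamycin, incubated overnight at 37°C or 30°C. The E. coli BL21(DE3) library had all eight P1ex-region intron nucleotides randomised, the intron placed in the knt kanamycin-resistance gene on pET-22b(+). DiMSum fitness is the error-weighted combination of replicate fold changes, kanamycin against none, normalised to wild type.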

Sequence	self-splicing fitness (ln) (30 °C)	self-splicing fitness (ln) (37 °C)
AUCCAGCAAUAUUACGGAGG	-2.21 ± 0.097	-0.607 ± 0.13
AUCCAGCAAUAUUACGGAUU	-3.25 ± 0.12	-2.83 ± 0.21
AUCCAGCAAUAUUACGGCGC	-0.203 ± 0.1	-0.114 ± 0.14
AUCCAGCAAUAUUACGGGUU	-3.75 ± 0.15	-2.89 ± 0.21
AUCCAGCAAUAUUACGGUAG	-3.97 ± 0.2	-2.6 ± 0.15
AUCCAGCAAUAUUACGGUGC	-1.6 ± 0.096	-1.27 ± 0.14
AUCCAGCAAUAUUACGUAAA	-1.3 ± 0.064	-0.843 ± 0.093
AUCCAGCAAUAUUACGUACA	-1.28 ± 0.11	-0.729 ± 0.18
AUCCAGCAAUAUUACGUACU	-1.56 ± 0.14	-0.416 ± 0.15
AUCCAGCAAUAUUACGUCGA	-0.897 ± 0.097	-0.557 ± 0.12
AUCCAGCAAUAUUACGUGAC	-1.03 ± 0.077	-0.702 ± 0.11
AUCCAGCAAUAUUACGUUAC	-3.89 ± 0.24	-2.59 ± 0.22
AUCCAGCAAUAUUACGUUUU	-2.04 ± 0.083	-1.15 ± 0.11
AUCGAGCAAUAUUACGAAAC	-2.27 ± 0.31	–
AUCGAGCAAUAUUACGAAAU	-2.63 ± 0.37	-1.87 ± 0.46
AUCGAGCAAUAUUACGACUA	-1.54 ± 0.24	-0.741 ± 0.15
AUCGAGCAAUAUUACGAGAU	-2.58 ± 0.13	-2.01 ± 0.17
AUCGAGCAAUAUUACGAGGA	-1.16 ± 0.4	-2.07 ± 0.31
AUCGAGCAAUAUUACGAGUG	-3.32 ± 0.3	-2.09 ± 0.32
AUCGAGCAAUAUUACGAUGC	-2.77 ± 0.47	-1.77 ± 0.42
AUCGAGCAAUAUUACGCUGC	-2.59 ± 0.45	–
AUCGAGCAAUAUUACGGACG	-2.42 ± 0.17	-2.96 ± 0.2
AUCGAGCAAUAUUACGGCGA	-1.24 ± 0.18	-0.629 ± 0.17
AUCGAGCAAUAUUACGUCCU	-1.18 ± 0.11	-0.423 ± 0.18

Sequence	self-splicing fitness (ln) (30 °C)	self-splicing fitness (ln) (37 °C)
AUCGAGCAAUAUUACGUCUU	-2.79 ± 0.12	-1.41 ± 0.12
AUCGAGCAAUAUUACGUGAG	-1.78 ± 0.11	-1.53 ± 0.15
AUCGAGCAAUAUUACGUGGA	-3.68 ± 0.37	-2.33 ± 0.22
AUCGAGCAAUAUUACGUUGU	-4 ± 0.26	-3.62 ± 0.31
AUCGAGCAAUAUUACGUUUA	-2.49 ± 0.29	-2.26 ± 0.37
AUCUAGCAAUAUUACGAAUG	-2.37 ± 0.18	-0.667 ± 0.19
AUCUAGCAAUAUUACGACCC	-0.615 ± 0.21	0.543 ± 0.31
AUCUAGCAAUAUUACGACUG	-2.01 ± 0.14	-1.07 ± 0.15
AUCUAGCAAUAUUACGAGCC	-2.69 ± 0.45	–
AUCUAGCAAUAUUACGAGGG	-2.92 ± 0.16	-2.18 ± 0.18
AUCUAGCAAUAUUACGAGUA	-2.58 ± 0.27	-1.53 ± 0.18
AUCUAGCAAUAUUACGAUAA	-2.1 ± 0.22	-1.1 ± 0.3
AUCUAGCAAUAUUACGAUGG	-3.59 ± 0.2	-1.75 ± 0.19
AUCUAGCAAUAUUACGAUUC	-2.85 ± 0.18	-1.23 ± 0.16
AUCUAGCAAUAUUACGCAGU	-2.53 ± 0.18	-2.09 ± 0.2
AUCUAGCAAUAUUACGCCAU	-2.72 ± 0.2	-1.05 ± 0.15
AUCUAGCAAUAUUACGCCCA	-0.101 ± 0.29	-1.32 ± 0.24
AUCUAGCAAUAUUACGCCCG	-0.765 ± 0.38	-0.733 ± 0.3
AUCUAGCAAUAUUACGGAGU	-2.61 ± 0.28	-1.52 ± 0.2
AUCUAGCAAUAUUACGGCGU	-0.0812 ± 0.084	0.429 ± 0.1
AUCUAGCAAUAUUACGGGAU	-2.92 ± 0.2	-2.28 ± 0.22
AUCUAGCAAUAUUACGGGUA	-1.97 ± 0.15	-1.49 ± 0.12
AUCUAGCAAUAUUACGGUAC	-2.16 ± 0.11	-2.44 ± 0.14
AUCUAGCAAUAUUACGUAUU	-2.56 ± 0.15	-2.08 ± 0.19

Sequence	self-splicing fitness (ln) (30 °C)	self-splicing fitness (ln) (37 °C)
AUCUAGCAAUAUUACGUCUA	-2.83 ± 0.25	-1.59 ± 0.21
AUCUAGCAAUAUUACGUGCC	-2.47 ± 0.23	-1.08 ± 0.15
AUCUAGCAAUAUUACGUGCG	-1.47 ± 0.21	-0.647 ± 0.17
AUCUAGCAAUAUUACGUGGG	-2.22 ± 0.18	-2.42 ± 0.27
AUCUAGCAAUAUUACGUUUG	-3.39 ± 0.28	-2.04 ± 0.37
AUCUAGCAAUAUUACGUUUU	-2.93 ± 0.11	-1.93 ± 0.12
AUGAAGCAAUAUUACGAAUG	-1.25 ± 0.095	-0.913 ± 0.1
AUGAAGCAAUAUUACGACAC	0.0739 ± 0.12	-0.0401 ± 0.14
AUGAAGCAAUAUUACGACUU	-0.222 ± 0.099	-0.0268 ± 0.12
AUGAAGCAAUAUUACGAUCC	-0.571 ± 0.11	0.455 ± 0.16
AUGAAGCAAUAUUACGCAAC	-1.28 ± 0.16	-1.13 ± 0.16
AUGAAGCAAUAUUACGCAGC	-2.75 ± 0.24	-0.841 ± 0.38
AUGAAGCAAUAUUACGCAUU	-3.78 ± 0.43	-2.52 ± 0.31
AUGAAGCAAUAUUACGCGUG	-0.281 ± 0.066	-0.171 ± 0.099
AUGAAGCAAUAUUACGCUAA	-1.32 ± 0.1	-0.00859 ± 0.13
AUGAAGCAAUAUUACGGAAU	-0.972 ± 0.074	-0.789 ± 0.091
AUGAAGCAAUAUUACGGCCU	0.063 ± 0.094	0.456 ± 0.13
AUGAAGCAAUAUUACGGGCG	-0.667 ± 0.081	0.118 ± 0.1
AUGAAGCAAUAUUACGGGCU	-1.52 ± 0.11	-0.445 ± 0.13
AUGAAGCAAUAUUACGUCUU	-2.04 ± 0.081	-1.44 ± 0.087
AUGAAGCAAUAUUACGUUGC	-3.64 ± 0.2	-3.01 ± 0.26
AUGAAGCAAUAUUACGUUGG	-2.72 ± 0.16	-1.58 ± 0.2
AUGCAGCAAUAUUACGAACC	-1.17 ± 0.17	-0.688 ± 0.21
AUGCAGCAAUAUUACGAACU	-0.238 ± 0.1	0.379 ± 0.11

Sequence	self-splicing fitness (ln) (30 °C)	self-splicing fitness (ln) (37 °C)
AUGCAGCAAUAUUACGAAGA	-1.8 ± 0.18	-2.36 ± 0.27
AUGCAGCAAUAUUACGACAG	-0.0726 ± 0.086	-0.339 ± 0.16
AUGCAGCAAUAUUACGACCA	-1.45 ± 0.17	-0.579 ± 0.18
AUGCAGCAAUAUUACGACGG	-1.74 ± 0.11	-1.41 ± 0.14
AUGCAGCAAUAUUACGAGCA	-0.52 ± 0.089	-0.627 ± 0.097
AUGCAGCAAUAUUACGAUGA	-1.93 ± 0.16	-1.04 ± 0.14
AUGCAGCAAUAUUACGAUGU	-0.358 ± 0.061	0.146 ± 0.085
AUGCAGCAAUAUUACGAUUG	-2.67 ± 0.2	-2.83 ± 0.32
AUGCAGCAAUAUUACGCACU	-0.148 ± 0.12	0.309 ± 0.16
AUGCAGCAAUAUUACGCCCC	-0.386 ± 0.27	-1.04 ± 0.27
AUGCAGCAAUAUUACGCGAA	-1.76 ± 0.13	-1.03 ± 0.11
AUGCAGCAAUAUUACGCGGA	-2.88 ± 0.11	-0.559 ± 0.069
AUGCAGCAAUAUUACGCGUA	-2.09 ± 0.18	-1.71 ± 0.2
AUGCAGCAAUAUUACGCUAU	-2 ± 0.12	-1.33 ± 0.14
AUGCAGCAAUAUUACGGCUU	-0.164 ± 0.072	0.254 ± 0.085
AUGCAGCAAUAUUACGUACA	-0.892 ± 0.064	-0.686 ± 0.076
AUGCAGCAAUAUUACGUCAA	-2.35 ± 0.19	-0.997 ± 0.14
AUGCAGCAAUAUUACGUCCU	0.0695 ± 0.095	0.786 ± 0.11
AUGCAGCAAUAUUACGUCGG	-2.43 ± 0.22	-1.91 ± 0.26
AUGCAGCAAUAUUACGUGAU	-1.76 ± 0.067	-0.91 ± 0.08
AUGCAGCAAUAUUACGUUAA	-2.58 ± 0.1	-1.71 ± 0.094
AUGCAGCAAUAUUACGUUUA	-2.04 ± 0.095	-1.21 ± 0.089
AUGGAGCAAUAUUACGAACG	-2.21 ± 0.25	-2.35 ± 0.5
AUGGAGCAAUAUUACGAAUG	-3.6 ± 0.34	-2.35 ± 0.18

From the supplement of paper PMC7877785
